# Positions count from the first letter of the chain named.
# B1: HB22-107 (antibody, V domains shown)
# VH: DVKLVESGEGLVKPGGSLKLSCAASGFTFSSYAMSWVRQTPEKRLEWVAYITSGGDYIYYADTVKGRFTISRDDARNTLYLQMSSLKSEDTAMYYCTRDQGYYYDGRPTWFAYWGQGTLVTVSA
# VL: DIVMIQSPSSLAMSVGQKVTMRCKSSQSLLSSSNQKNYLAWYQQKPGQSPKLLVYFASTRESGVPDRFIGSGSGTDFTLTINSVQAEDLADYFCQQHYSTPLTFGAGTKLELK
# notes: Mouse IgG1 monoclonal antibody to human CD22; also called HB22-107 mAb; HB22 mAb
# B2: HB22-103 (antibody, V domains shown)
# VH: QVQLQQPGTELVKPGASVKLSCKASGYTFTSYWMHWVKQRPGQGLEWIGMIHPNRGTTNYNEKFKSKATLTVDKSSSTAYMQLSSLTSEDSAVYYCARYYDYDPDYWGQGTTLTVSS
# VL: DIVLTQSPATLSVTPGDSVSLSCRASQSISNNLHWFQQKSHESPRLLIKYGYQSISGIPSRFSGSGSGTDFTLSINSVETEDFGMYFCQQSYRWPYTFGGGTKLEIK
# notes: also called HB22-103 mAb; HB22 mAb
# B3: HB22-115 (antibody, V domains shown)
# VH: B2 VH with T9A, R55S, T57S, N61S
# VL: B2 VL with S20T, S28G, F36Y, K39Q, Y50F, G51T, Y52S, I55V, I75V, Y92N
# notes: Mouse IgG1 monoclonal antibody to human CD22; also called HB22-115 mAb; HB22 mAb
# Biological target: T1, human CD22 on B cells of hCD22-Tg+/+ mCD22-/- transgenic mice (human, UniProt P20273 20-847)
# T1 construct: whole, on cells; Expressed from the human CD22 gene with its endogenous regulatory elements
# Test: flow cytometry of blood B220+ B cells from hCD22-Tg mice 7 days after mAb injection, stained with anti-mouse IgG1
# Experimental: FIGS. 20A-20B are a set of histograms and scatter plots showing B10 cell-depleting mAbs in hCD22-Tg mice bind B220⁺B cells. Blood lymphocytes isolated from hCD22-Tg mice given either HB22-103, HB22-107, HB22-115 or an isotype-matched (IgG1) mAb (250 μg/mouse) 7 days earlier in FIG. 16 were assessed for relative HB22 mAb binding by immunofluorescence staining with fluorochrome-conjugated anti-mouse IgG1 isotype-specific antibody. […] Bars indicate means, with significant differences between group means indicated: **, p<0.01; ***, p<0.001.
row,binding result,Binder
1,binds,B1
2,binds,B2
3,binds,B3
